How the values were obtained:
Assay in all cases: purified protein
Settings in all cases: 5 mM ATP, 0.5 mM CoASH, 30-300 µM FA, 10 mM MgCl2, 0.1% Triton X-100, pH 7.2, 37°C, printed unit mM conflicts with printed kcat/Km and FA range (implies µM)
CCCC(=O)O = test system: CCCC(=O)O
Excerpt: (§1) DTNB (Ellman) assay of CoASH consumption, A412, Hanes-Woolf plot on FadD1
CCCCCCCCCCCCCCCC(=O)O = test system: CCCCCCCCCCCCCCCC(=O)O
CCCCCCCCCCCC(=O)O = test system: CCCCCCCCCCCC(=O)O
CCCCCCCCCC(=O)O = test system: CCCCCCCCCC(=O)O
Excerpt: as §1
CCCCCCCC(=O)O = test system: CCCCCCCC(=O)O
CCCCCC(=O)O = test system: CCCCCC(=O)O
CCCCCCCCCCCCCC(=O)O = test system: CCCCCCCCCCCCCC(=O)O

Substance: FadD1 (Pseudomonas aeruginosa PAO1)
- kcat (CCCC(=O)O): 0.141 s⁻¹
- kcat (CCCCCCCCCCCCCCCC(=O)O): 0.158 s⁻¹
- kcat (CCCCCCCCCCCC(=O)O): 0.134 s⁻¹
- kcat (CCCCCCCCCC(=O)O): 0.119 s⁻¹
- kcat (CCCCCCCC(=O)O): 0.128 s⁻¹
- kcat (CCCCCC(=O)O): 0.137 s⁻¹
- kcat (CCCCCCCCCCCCCC(=O)O): 0.134 s⁻¹

Substance: FadD2 (Pseudomonas aeruginosa PAO1)
- kcat (CCCCCCCCCCCCCCCC(=O)O): 0.102 s⁻¹
- kcat (CCCCCCCCCCCC(=O)O): 0.141 s⁻¹
- kcat (CCCCCCCC(=O)O): 0.210 s⁻¹
- kcat (CCCCCC(=O)O): 0.164 s⁻¹
- kcat (CCCCCCCCCCCCCC(=O)O): 0.112 s⁻¹

Reference: paper PMC2958839, “Multiple FadD Acyl-CoA Synthetases Contribute to Differential Fatty Acid Degradation and Virulence in Pseudomonas aeruginosa” (PLoS ONE, 2010)
